Data reported in article doi:10.1101/411223 (bioRxiv, 2018).

What was measured:
Kap114p [1] = molecular target: T1, Kap114p (S. cerevisiae, UniProt P53067 1-1004); experiment: ITC
T1 sequence (looked up): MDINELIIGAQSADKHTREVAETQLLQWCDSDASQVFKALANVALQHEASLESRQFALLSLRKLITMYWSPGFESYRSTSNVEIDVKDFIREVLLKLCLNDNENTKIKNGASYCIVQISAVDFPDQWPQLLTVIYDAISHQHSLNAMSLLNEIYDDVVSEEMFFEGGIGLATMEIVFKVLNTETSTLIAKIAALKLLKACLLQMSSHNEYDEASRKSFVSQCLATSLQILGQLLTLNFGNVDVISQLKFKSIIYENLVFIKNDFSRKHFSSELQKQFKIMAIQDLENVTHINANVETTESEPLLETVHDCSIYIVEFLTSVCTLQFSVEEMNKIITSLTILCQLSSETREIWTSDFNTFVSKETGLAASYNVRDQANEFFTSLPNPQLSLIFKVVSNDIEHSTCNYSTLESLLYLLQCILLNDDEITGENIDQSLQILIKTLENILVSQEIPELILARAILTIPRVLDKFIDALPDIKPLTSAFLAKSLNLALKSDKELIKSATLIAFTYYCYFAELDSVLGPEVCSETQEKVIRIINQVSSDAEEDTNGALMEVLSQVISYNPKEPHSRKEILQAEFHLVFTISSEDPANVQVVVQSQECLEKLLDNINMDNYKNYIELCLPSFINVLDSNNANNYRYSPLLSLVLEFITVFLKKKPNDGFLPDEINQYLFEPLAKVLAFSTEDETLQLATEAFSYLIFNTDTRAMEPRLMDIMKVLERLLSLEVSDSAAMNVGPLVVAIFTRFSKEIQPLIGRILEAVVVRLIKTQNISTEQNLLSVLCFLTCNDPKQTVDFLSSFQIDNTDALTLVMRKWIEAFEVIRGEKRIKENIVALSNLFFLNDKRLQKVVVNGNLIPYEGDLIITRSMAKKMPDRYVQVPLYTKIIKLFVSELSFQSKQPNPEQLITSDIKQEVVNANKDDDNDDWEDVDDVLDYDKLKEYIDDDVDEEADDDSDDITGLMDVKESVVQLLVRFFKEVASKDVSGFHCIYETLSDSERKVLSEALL

Kap95p = molecular target: T2, Kap95p (S. cerevisiae, UniProt Q06142 1-861); experiment: ITC
T2 sequence (looked up): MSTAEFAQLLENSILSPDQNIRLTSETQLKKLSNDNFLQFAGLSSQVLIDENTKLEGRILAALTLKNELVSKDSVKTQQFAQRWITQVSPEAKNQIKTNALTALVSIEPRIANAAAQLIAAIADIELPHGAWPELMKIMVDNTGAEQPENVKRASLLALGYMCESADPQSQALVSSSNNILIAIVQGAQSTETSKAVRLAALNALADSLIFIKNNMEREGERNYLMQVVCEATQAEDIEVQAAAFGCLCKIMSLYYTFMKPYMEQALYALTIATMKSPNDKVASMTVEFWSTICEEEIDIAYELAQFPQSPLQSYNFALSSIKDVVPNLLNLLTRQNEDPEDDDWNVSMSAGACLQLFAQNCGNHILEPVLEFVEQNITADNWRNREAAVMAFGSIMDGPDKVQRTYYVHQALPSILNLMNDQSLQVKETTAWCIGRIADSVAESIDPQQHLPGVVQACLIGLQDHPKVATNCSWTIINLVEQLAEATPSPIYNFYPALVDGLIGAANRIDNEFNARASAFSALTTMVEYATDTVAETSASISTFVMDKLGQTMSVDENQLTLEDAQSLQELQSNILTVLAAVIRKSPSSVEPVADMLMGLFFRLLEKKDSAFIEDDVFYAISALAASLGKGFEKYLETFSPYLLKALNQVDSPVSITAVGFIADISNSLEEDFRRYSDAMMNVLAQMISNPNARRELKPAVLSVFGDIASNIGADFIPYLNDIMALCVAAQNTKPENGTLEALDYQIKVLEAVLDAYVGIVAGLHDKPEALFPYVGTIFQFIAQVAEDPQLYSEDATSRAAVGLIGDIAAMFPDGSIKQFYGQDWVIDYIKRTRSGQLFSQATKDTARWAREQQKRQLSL

AUC = molecular target: the molecule itself; experiment: AUC
Kap114p [2] = molecular target: T1, Kap114p; experiment: AUC

B1: yTBP (61-240) (domain or fragment, S. cerevisiae, UniProt P13393 61-240, looked up)
chain: SGIVPTLQNIVATVTLGCRLDLKTVALHARNAEYNPKRFAAVIMRIREPKTTALIFASGKMVVTGAKSEDDSKLASRKYARIIQKIGFAAKFTDFKIQNIVGSCDVKFPIRLEGLAFSHGTFSSYEPELFPGLIYRMVKPKIVLLIFVSGKIVLTGAKQREEIYQAFEAIYPVLSEFRKM
Question: For B1, which Kd (Kap114p [1]) is on record?
Answer: 0.006 µM

Question: And the Kd (Kap95p)?
Answer: ~10 µM

Question: And the “stoichiometry N” value (AUC)?
Answer: 2

Question: What about the “stoichiometry N” value (Kap114p [2]) of the same binder?
Answer: 1
